Data reported in patent publication US20120058906A1 (published 2012).
Values belong to the binder of their own block, whether it stands above or below them.

Tests used:
[1] = molecular target: T1, Recombinant Human DLL4 (R&D Systems Cat#1506-D4/CF) (human, UniProt Q9NR61 27-524); assay: MSD ECL multi-spot plate, antigen immobilized; Fab 1000 nM; blank spot 630;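 note: blank spot per well as comparator with Hit at signal to blank ratio of 4 or more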
T1 construct: Purchased recombinant protein; also called delta-like protein 4

[2] = molecular target: T2, rHuman ErbB2/Fc Chimera, CF (R&D Systems Cat#1129-ER) (human, UniProt P04626 23-652); assay: as above
T2 construct: Purchased Fc chimera; also called HER2/neu; not shown: Fc portion of the purchased chimera

[3] = molecular target: T3, rHuman Notch-1/Fc Chimera, CF (R&D Systems Cat#3647-TK) (human, UniProt P46531 19-526); assay: as above
T3 construct: Purchased Fc chimera; not shown: Fc portion of the purchased chimera

[4] = molecular target: T4, rHuman HGF R/c-MET/Fc Chimera, CF (R&D Systems Cat#358-MT/CF) (human, UniProt P08581 25-932); assay: as above
T4 construct: Purchased Fc chimera; also called HGF R/Fc; not shown: Fc portion of the purchased chimera

[5] = molecular target: T5, rHuman Erythropoietin R/Fc Chimera, CF (R&D Systems Cat#963-ER) (human, UniProt P19235 25-250); assay: ECL (MSD multi-spot), antigen on plate, Fab 500 nM
T5 construct: Bought Fc chimera; also called EPO R/Fc; Epo R; not shown: Fc of the bought chimera
T5 sequence: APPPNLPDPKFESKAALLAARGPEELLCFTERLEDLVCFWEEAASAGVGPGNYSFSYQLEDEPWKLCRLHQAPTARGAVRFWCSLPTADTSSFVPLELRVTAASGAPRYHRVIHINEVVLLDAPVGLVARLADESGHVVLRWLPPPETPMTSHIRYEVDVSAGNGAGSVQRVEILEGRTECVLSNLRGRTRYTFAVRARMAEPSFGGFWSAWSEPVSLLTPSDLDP

[6] = molecular target: T6, rHuman EGF R/Fc Chimera, CF (R&D Systems Cat#344-ER) (human, UniProt P00533 25-645); assay: ECL (MSD multi-spot), antigen on plate, Fab 500 nM
T6 construct: Bought Fc chimera; also called ErbB-1; not shown: Fc of the bought chimera

[7] = molecular target: T7, rHuman HGF R/c-MET/Fc Chimera, CF (R&D Systems Cat#358-MT/CF) (human, UniProt P08581 25-932); assay: ECL (MSD multi-spot), antigen on plate, Fab 500 nM
T7 construct: Bought Fc chimera; also called HGF R/Fc; not shown: Fc of the bought chimera

[8] = molecular target: T8, rHuman P-Cadherin/Fc Chimera, CF (R&D Systems Cat#861-PC) (human, UniProt P22223 108-654); assay: ECL (MSD multi-spot), antigen on plate, Fab 500 nM
T8 construct: Bought Fc chimera; also called CDH3; not shown: Fc of the bought chimera

[9] = molecular target: T9, rHuman CD44/Fc Chimera, CF (R&D Systems Cat#3660-CD) (human, UniProt P16070 21-220); assay: ECL (MSD multi-spot), antigen on plate, Fab 500 nM
T9 construct: Bought Fc chimera; not shown: Fc of the bought chimera

[10] = molecular target: T10, Recombinant Human DLL4 (R&D Systems Cat#1506-D4/CF) (human, UniProt Q9NR61 27-524); assay: ECL (MSD multi-spot), antigen on plate, Fab 500 nM
T10 construct: Bought recombinant protein; also called delta-like protein 4

[11] = molecular target: T11, rHuman IGF-1 sR (insulin-like growth factor-1 soluble receptor), CF (R&D Systems Cat#391-GR) (human, UniProt P08069 31-932); assay: ECL (MSD multi-spot), antigen on plate, Fab 500 nM
T11 construct: Bought soluble receptor; also called IGF-R1

[12] = molecular target: T12, rHuman Notch-1/Fc Chimera, CF (R&D Systems Cat#3647-TK) (human, UniProt P46531 19-526); assay: ECL (MSD multi-spot), antigen on plate, Fab 500 nM
T12 construct: Bought Fc chimera; not shown: Fc of the bought chimera

[13] = molecular target: T13, rHuman ErbB2/Fc Chimera, CF (R&D Systems Cat#1129-ER) (human, UniProt P04626 23-652); assay: ECL (MSD multi-spot), antigen on plate, Fab 500 nM
T13 construct: Bought Fc chimera; also called HER2/neu; not shown: Fc of the bought chimera

[14] = molecular target: T5, rHuman Erythropoietin R/Fc Chimera, CF …; assay: ECL (MSD multi-spot), antigen on plate, Fab 10 nM;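 note: blank spot per well as comparator with Hit at signal to blank ratio of 4 or more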
[15] = molecular target: T6, rHuman EGF R/Fc Chimera, CF (R&D …); assay: ECL (MSD multi-spot), antigen on plate, Fab 10 nM;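 note: blank spot per well as comparator with Hit at signal to blank ratio of 4 or more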
[16] = molecular target: T7, rHuman HGF R/c-MET/Fc Chimera, CF (R&D …); assay: ECL (MSD multi-spot), antigen on plate, Fab 10 nM;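 note: blank spot per well as comparator with Hit at signal to blank ratio of 4 or more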
[17] = molecular target: T8, rHuman P-Cadherin/Fc Chimera, CF (R&D …); assay: ECL (MSD multi-spot), antigen on plate, Fab 10 nM;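 note: blank spot per well as comparator with Hit at signal to blank ratio of 4 or more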
[18] = molecular target: T10, Recombinant Human DLL4 (R&D Systems …); assay: ECL (MSD multi-spot), antigen on plate, Fab 10 nM;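 note: blank spot per well as comparator with Hit at signal to blank ratio of 4 or more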
[19] = molecular target: T12, rHuman Notch-1/Fc Chimera, CF (R&D …); assay: ECL (MSD multi-spot), antigen on plate, Fab 10 nM;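 note: blank spot per well as comparator with Hit at signal to blank ratio of 4 or more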
[20] = molecular target: T13, rHuman ErbB2/Fc Chimera, CF (R&D …); assay: ECL (MSD multi-spot), antigen on plate, Fab 10 nM

- ECL signal [1]: 29600 ECL signal
- ECL signal [2]: 1250 ECL signal
- ECL signal [3]: 1180 ECL signal
- ECL signal [4]: 1200 ECL signal
B1: Fab VH5-51_IGHD5-18*01>3_IGHJ4*01_G100K & V3-4_IGLJ1*01 (Fab, V domains shown)
VH: EVQLVQSGAEVKKPGESLKISCKGSGYSFTSYWIGWVRQMPGKGLEWMGIIYPGDSDTRYSPSFQGQVTISADKSISTAYLQWSSLKASDTAMYYCARRKYSYGYDYFDYWGQGTLVTVSS
VL: QTVVTQEPSFSVSPGGTVTLTCGLSSGSVSTSYYPSWYQQTPGQAPRTLIYSTNTRSSGVPDRFSGSILGNKAALTITGAQADDESDYYCVLYMGSGISYVFGTGTKVTVL
notes: It was expressed as a Fab: CH1 with tags from Plasmid A and lambda CL from Plasmid E; also called Fab No. 22

- ECL signal [5]: 1270 ECL signal
- ECL signal [6]: 758 ECL signal
- ECL signal [7]: 841 ECL signal
- ECL signal [8]: 1200 ECL signal
- ECL signal [9]: 604 ECL signal
- ECL signal [10]: 106000 ECL signal
- ECL signal [11]: 747 ECL signal
- ECL signal [12]: 689 ECL signal
- ECL signal [13]: 596 ECL signal
B2: Fab VH1-46_IGHD6-6*01_IGHJ1*01_S102A_S103P_S104Y_H111Y & L6_IGKJ1*01 (Fab, V domains shown)
VH: QVQLVQSGAEVKKPGASVKVSCKASGYTFTSYYMHWVRQAPGQGLEWMGIINPSGGSTSYAQKFQGRVTMTRDTSTSTVYMELSSLRSEDTAVYYCAREEYAPYSAEYFQYWGQGTLVTVSS
VL: not shown
notes: Fab made in E. coli; The heavy chain also carries CH1 with Flag and His tags from Plasmid A, and the light chain carries kappa CL from Plasmid C

- ECL signal [14]: 420 ECL signal
- ECL signal [15]: 245 ECL signal
- ECL signal [16]: 239 ECL signal
- ECL signal [17]: 283 ECL signal
- ECL signal [18]: 33400 ECL signal
- ECL signal [19]: 253 ECL signal
- ECL signal [20]: 274 ECL signal
B3: Fab VH1-46_IGHD6-6*01_IGHJ1*01_S102A_S103P_S104F & L6_IGKJ1*01_S30N (Fab, V domains shown)
VH: QVQLVQSGAEVKKPGASVKVSCKASGYTFTSYYMHWVRQAPGQGLEWMGIINPSGGSTSYAQKFQGRVTMTRDTSTSTVYMELSSLRSEDTAVYYCAREEYAPFSAEYFQHWGQGTLVTVSS
VL: EIVLTQSPATLSLSPGERATLSCRASQSVNSYLAWYQQKPGQAPRLLIYDASNRATGIPARFSGSGSGTDFTLTISSLEPEDFAVYYCQQRSNWPPWTFGQGTKVEIKR
notes: Fab
